Results as given in the DeepSol protein solubility set.

Assay: soluble on expression in E. coli; label from the status in PepcDB or PDB records

Soluble on expression in E. coli, soluble:
MNYNNKILVSESGLSQKHLIHGDEELFQHELKTIFARNWLFLTHDSLIPAPGDYVTAKMGIDEVIVSRQNDGSIRAFLNVCRHRGKTLVSVEAGNAKGFVCSYHGWGFGSNGELQSVPFEKDLYGESLNKKCLGLKEVARVESFHGFIYGCFDQEAPPLMDYLGDAAWYLEPMFKHSGGLELVGPPGKVVIKANWKAPAENFVGDAYHVGWTHASSLRSGESIFSSLAGNAALPPEGAGLQMTSKYGSGMGVLWDGYSGVHSADLVPELMAFGGAKQERLNKEIGDVRARIYRSHLNCTVFPNNSMLTCSGVFKVWNPIDANTTEVWTYAIVEKDMPEDLKRRLADSVQRTVGPAGFWESDDNDNMETASQNGKKYQSRDSDLLSNLGFGEDVYGDAVYPGVVGKSAIGETSYRGFYRAYQAHVSSSNWAEFEHASSTWHTELTKTTDR
MNYQNDDLRIKEIKELLPPVALLEKFPATENAANTVAHARKAIHKILKGNDDRLLVVIGPCSIHDPVAAKEYATRLLALREELKDELEIVMRVYFEKPRTTVGWKGLINDPHMDNSFQINDGLRIARKLLLDINDSGLPAAGEFLDMITPQYLADLMSWGAIGARTTESQVHRELASGLSCPVGFKNGTDGTIKVAIDAINAAGAPHCFLSVTKWGHSAIVNTSGNGDCHIILRGGKEPNYSAKHVAEVKEGLNKAGLPAQVMIDFSHANSSKQFKKQMDVCADVCQQIAGGEKAIIGVMVESHLVEGNQSLESGEPLAYGKSITDACIGWEDTDALLRQLANAVKARRG
MNYVKIGVGGPVGSGKTALIEKLTRILADSYSIGVVTNDIYTKEDAEFLIKNSVLPKERIIGVETGGCPHTAIREDASMNLEAVEELVQRFPDIQIVFIESGGDNLSATFSPELADATIYVIDVAEGDKIPRKGGPGITRSDLLVINKIDLAPYVGASLEVMERDSKKMRGEKPFIFTNLNTNEGVDKIIDWIKKSVLLEGV
MPAALLISGPCKICDLPAHGNHFGVLSCRACAAFFRRASRSPRFQDKACEYGDCRIFDAGAYRCKICRLKKCYKVGMDASKFQKDRDLISSSNAYLKRTKVYAPQSLANFLGRPEFIISFEPEKASPFKTVIDVTDLVHKAAEIFQEVKVIFWHKPTLHGPIDVFFASNFAVL

Soluble on expression in E. coli, not soluble:
MNYSLRQLRIFITVAQAKSFSRAGDRIGLSQSAVSHSVKELERQTGVRLLDRTTREVVLTEAGQQLATRLERVLDELNSILRDAGRVGTQLTGTVRVAASQTISAHLIPQCIAQSNSLYPAIDFVLHDRPQQWVLESIRQGEVDFGIVIDPGAAVDLQCEAILSEPFLLLCRQDHPLAHQEWVSWQDLKQASLVLQDYASGSRPLIDAALAHFAIEADIVQEIGHPATLFPMVEAGIGISVLPALALPLPQGSHLQVKRLTPVVERQLMLARRKNRSLSTAAQALWDVVRTQASELTAARAKDPLYQL
MPAILETNPIAIRACILYEVRQKRPIFESFKNFCNAFGNDFMEYREFERWFYRFYHGNEDLDYDMSREPKTASLSELPIEILFKIVENLNFLDRLLLRNVSPCFRSIAEDHVNEVTNISVTSIPNHVHVCFYHESDYTDIICKRVDDDCVITKMSQYEDSKDWKIEGVSHVTVALNYLSRVLKSPKLKLEKLRLDFLEHNKEDTQCMEELLTVLENSEPHVLNIEFEGLNFHETSSVLKNLKNVEEIQLSMYSIQELSGIEKLVELEQWKTAKTLDISSHEDIEMDIKDLLHFQSIDVRLKSFSVQDAVKVKETLELRTSDFRSGTFRVLNTDTRKIGKVFNPKYTDAANNTFNFKTKNSSFEITMCSKEIYVKRKL
MPDKKREVSLSHRLQEVASFVPKGARLLDVGSDHAYLPIYLLEQGLIDFAVAGEIIKGPYESAVANVSESELSGQIAVRLADGLAALNDNDDIDLITICGMGGRLIADILAAGSDKLNSVKQLILQPNNCEDDLRSWLVANDFMIKAEKMVKDRHKYYEILVVEKGKITLSDKDLRFGPFLRQERSSIFKERWRKELAKLELALTKVPAKKKADNMFLSTKIEQIKEVLYES
